Measured values as given in article PMC12120064.

Assays:
Assay in all cases: CEACAM1 co-IP (PLA also mentioned)
Conditions in all cases: reference: full-length 4L CEACAM1; sites Y493,Y520
SHP-1 = SHP-1 (UniProt P29350)
filamin A (FLNA) = filamin A (FLNA) (UniProt P21333)
SYK = SYK (UniProt P43405)

binding against the reference (SHP-1): weaker | binding against the reference (filamin A (FLNA)): weaker | binding against the reference (SYK): weaker
Substance: CEACAM1 (CEACAM1-4L) (from UniProt P13688) Y493F/Y520F
